The conditions of data set [1]: cited from earlier work.
Data set [2] can be described thus: Stability and bleaching performance of SOx in HDL laundry wash conditions. From the text: In this Example, methods to determine the stability and bleaching performance of SOx (produced as described above) in AATCC liquid detergent laundry wash conditions are described. In these experiments, AATCC standard detergent (American Association of Textile Chemists and Colorists Heavy Duty Liquid Detergent Version 2003 without brightener; key components include linear alkane sulfonate, alcohol ethoxylate, propanediol, citric acid, fatty acid, castic soda and water; Testfabrics) was used.
Three bleachable cotton swatches with juice (STC CFT CS-15), wine (STC CFT CS-3), and tea (STC CFT BC-3) were used. The swatches were cut into 15 mm circles with a textile punch (Model B equipped with a ⅝″ die cutter; Model 93046; NAEF).
Single swatch disks were placed into each well of a 24-well microplate (Costar 3526). One (1) ml of washing solution pH 8, containing per liter, 1.5 ml AATCC HDL detergent, 75-100 mM sorbitol, 6 gpg hardness (diluted from stock 15000 gpg hardness solution containing 1.735 M calcium chloride and 0.67 M magnesium chloride), and 0.05% TAED (tetraacetylethylenediamine, Fluka) was added to each well. Five to fifty (5-50 ul) microliters of partially purified sorbitol oxidase or sorbitol oxidase obtain from a late fermentation run (108 hr EFT “effective fermentation time”) produced as described in Examples 1 and 2, were added with a positive displacement pipette to 3-8 wells in one column. The control wells contained no enzyme. The microplate was covered with a plastic lid and aluminum foil and incubated at 37° C. with 100 rpm gentle rotation for 14 hr. […]
One hundred microliters (100 ul) of 0.1 mM sodium carbonate were added to each well to elevate the pH to 10. […] The disks were inspected visually and then analyzed with a Reflectometer CR-200 (Minolta) calibrated on a standard white tile. The average L values were calculated as was the percent soil release (% SR=100%×(Final reflectance-Initial reflectance)/(Reflectance of a white standard-Initial reflectance). Graphs showing the results of these experiments are provided in FIGS. 5-8.

Data set [3] in a line: Substrate range study: SCO6147 SOx activity on D-sorbitol versus D-xylitol. The class given is biochemical, Streptomyces lividans. Particulars: SOx transformed in S. lividans; substrates 50 mM, pH 7.0. As for the experimental part: Sorbitol oxidase obtained using the methods described in Example 1, was tested for finding its activity with various polyol substrates. All substrates used in the assay were 50 mM in 10 mM phosphate buffer pH 7.0. The relative activity using sorbitol as (++++++=100%) is shown below in Table 3.

The source of these data is patent publication US7919295B2, “Polyol oxidases” (Danisco US Inc., priority 2006, dated 2011).

B1: sorbitol oxidase from Streptomyces species H-7775: sorbitol oxidase of Streptomyces species H-7775, Genbank AB000519, 420 amino acids (protein)
chain: MTPAEKNWAGNITFGAKRLCVPRSVRELRETVAASGAVRPLGTRHSFNTVADTSGDHVSLAGLPRVVDIDVPGRAVSLSAGLRFGEFAAELHARGLALANLGSLPHISVAGAVATGTHGSGVGNRSLAGAVRALSLVTADGETRTLRRTDEDFAGAVVSLGALGVVTSLELDLVPAFEVRQWVYEDLPEATLAARFDEVMSAAYSVSVFTDWRPGPVGQVWLKQRVGDEGARSVMPAEWLGARLADGPRHPVPGMPAGNCTAQQGVPGPWHERLPHFRMEFTPSNGDELQSEYFVARADAVAAYEALARLRDRIAPVLQVSELRTVAADDLWLSPAHGRDSVAFHFTWVPDAAAVAPVAGAIEEALAPFGARPHWGKVFSTAPEVLRTLYPRYADFEELVGRHDPEGTFRNAFLDRYFRR
modifications: Streptomyces H-7775
notes: sorbitol oxidase of Streptomyces species H-7775, Genbank AB000519, 420 amino acids
B1: in data set [1] (24 hours at 30° C.), the “pH range in which enzyme is stable” value was 7.5-10 pH. The optimum temperature in data set [1] (at pH 7.5) is 50 °C.

B2: sorbitol oxidase: partially purified sorbitol oxidase or fermentation broth cell lysate (108 hr EFT) used for biobleaching (protein)
chain: MTPAEKNWAGNITFGAKRLCVPRSVRELRETVAASGAVRPLGTRHSFNTVADTSGDHVSLAGLPRVVDIDVPGRAVSLSAGLRFGEFAAELHARGLALANLGSLPHISVAGAVATGTHGSGVGNRSLAGAVRALSLVTADGETRTLRRTDEDFAGAVVSLGALGVVTSLELDLVPAFEVRQWVYEDLPEATLAARFDEVMSAAYSVSVFTDWRPGPVGQVWLKQRVGDEGARSVMPAEWLGARLADGPRHPVPGMPAGNCTAQQGVPGPWHERLPHFRMEFTPSNGDELQSEYFVARADAVAAYEALARLRDRIAPVLQVSELRTVAADDLWLSPAHGRDSVAFHFTWVPDAAAVAPVAGAIEEALAPFGARPHWGKVFSTAPEVLRTLYPRYADFEELVGRHDPEGTFRNAFLDRYFRR
modifications: Streptomyces H-7775
notes: partially purified sorbitol oxidase or fermentation broth cell lysate (108 hr EFT) used for biobleaching
Take B2: the “stability in typical liquid detergent system” value in data set [2] (AATCC HDL detergent, pH 8, 37° C., 14 hr) is given as “stable”. In data set [2] (in presence of sorbitol mixed with detergent and atmospheric oxygen), the “hydrogen peroxide production in detergent” value was “able to produce effective concentration of hydrogen peroxide”. For the same molecule, in data set [2] (with bleach booster TAED, blueberry, tea and wine stains, FIGS. 5-8), the “bleaching of colored stains” value is recorded as “able to help bleach”.

B3: POx of SEQ ID NO:4: sorbitol oxidase of Streptomyces lividans, gene identified from S. coelicolor SCO6147, expressed intracellularly in S. lividans g3s3 (protein)
chain: MGDITVTNWAGNITYTAKELLRPHSLDALRALVADSARVRVLGSGHSFNEIAEPGDGGVLLSLAGLPSVVDVDTAARTVRVGGGVRYAELARVVHARGLALPNMASLPHISVAGSVATGTHGSGVGNGSLASVVREVELVTADGSTVVIARGDERFGGAVTSLGALGVVTSLTLDLEPAYEMEQHVFTELPLAGLDPATFETVMAAAYSVSLFTDWRAPGFRQVWLKRRTDRPLDGFPYAAPAAEKMHPVPGMPAVNCTEQFGVPGPWHERLPHFRAEFTPSSGAELQSEYLMPREHALAALHAMDAIRETLAPVLQTCEIRTVAADAQWLSPAYGRDTVAAHFTWVEDTAAVLPVVRRLEEALVPFAARPHWGKVFTVPAGELRALYPRLADFGALAGALDPAGKFTNAFVRGVLAG
modifications: Streptomyces lividans
notes: sorbitol oxidase of Streptomyces lividans, gene identified from S. coelicolor SCO6147, expressed intracellularly in S. lividans g3s3
Consider B3, for which, in data set [3], the “activity on D-sorbitol relative to D-xylitol” value stood at 2.1 times.
